Numbering of substitutions follows the chain as printed. In names and notes the source's numbering stands. Values belong to the binder of their own block, whether it stands above or below them.
Molecular target: T1, achaete-scute homolog 1 (ASCL1), expressed in cells (UniProt P50553 1-236)
T1 sequence (looked up): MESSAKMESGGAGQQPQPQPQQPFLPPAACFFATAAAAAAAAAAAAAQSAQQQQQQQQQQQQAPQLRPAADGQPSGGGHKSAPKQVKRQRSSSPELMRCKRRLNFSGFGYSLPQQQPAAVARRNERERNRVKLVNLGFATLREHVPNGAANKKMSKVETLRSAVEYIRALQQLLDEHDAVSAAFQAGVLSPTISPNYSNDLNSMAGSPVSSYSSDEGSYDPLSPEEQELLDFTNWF
Test: cell-based or functional assay

B4: TCF4-B¯ R569W (natural protein, human, UniProt P15884-3 1-671, looked up)
chain: MHHQQRMAALGTDKELSDLLDFSAMFSPPVSSGKNGPTSLASGHFTGSNVEDRSSSGSWGNGGHPSPSRNYGDGTPYDHMTSRDLGSHDNLSPPFVNSRIQSKTERGSYSSYGRESNLQGCHQQSLLGGDMDMGNPGTLSPTKPGSQYYQYSSNNPRRRPLHSSAMEVQTKKVRKVPPGLPSSVYAPSASTADYNRDSPGYPSSKPATSTFPSSFFMQDGHHSSDPWSSSSGMNQPGYAGMLGNSSHIPQSSSYCSLHPHERLSYPSHSSADINSSLPPMSTFHRSGTNHYSTSSCTPPANGTDSIMANRGSGAAGSSQTGDALGKALASIYSPDHTNNSFSSNPSTPVGSPPSLSAGTAVWSRNGGQASSSPNYEGPLHSLQSRIEDRLERLDDAIHVLRNHAVGPSTAMPGGHGDMHGIIGPSHNGAMGGLGSGYGTGLLSANRHSLMVGTHREDGVALRGSHSLLPNQVPVPQLPVQSATSPDLNPPQDPYRGMPPGLQGQSVSSGSSEIKSDDEGDENLQDTKSSEDKKLDDDKKDIKSITSNNDDEDLTPEQKAEREKEWRMANNARERLRVRDINEAFKELGRMVQLHLKSDKPQTKLLILHQAVAVILSLEQQVRERNLNPKAACLKRREEEKVSSEPPPLSLAGPHPGMGDASNHMGQM
- luciferase reporter (12 μE5 E-boxes, minimal promoter) in HEK293 cells, coexpressed with ASCL1; increase against WT TCF4-B¯: 2.2 fold
- luciferase reporter in rat primary neurons, basal conditions, coexpressed with ASCL1; increase against WT TCF4-B¯: 2.8 fold

B5: TCF4-B¯ N585D (natural protein, human, UniProt P15884-3 1-671, looked up)
chain: B4 chain with W565R, N581D
- luciferase reporter (12 μE5 E-boxes, minimal promoter) in HEK293 cells, coexpressed with ASCL1; increase against WT TCF4-B¯: 1.6 fold
- luciferase reporter in rat primary neurons, basal conditions, coexpressed with ASCL1; increase against WT TCF4-B¯: 2.4 fold

Next, values leading:

- luciferase reporter (12 μE5 E-boxes, TK promoter) in depolarized rat primary neurons; increase when ASCL1 was coexpressed: 2.5 fold
B1: Transcription factor 4 isoform TCF4-A¯, wild type (natural protein, human, UniProt P15884-6 1-507, looked up)
chain: MYCAYTIPGMGGNSLMYYYNGKAVYAPSASTADYNRDSPGYPSSKPATSTFPSSFFMQDGHHSSDPWSSSSGMNQPGYAGMLGNSSHIPQSSSYCSLHPHERLSYPSHSSADINSSLPPMSTFHRSGTNHYSTSSCTPPANGTDSIMANRGSGAAGSSQTGDALGKALASIYSPDHTNNSFSSNPSTPVGSPPSLSAGTAVWSRNGGQASSSPNYEGPLHSLQSRIEDRLERLDDAIHVLRNHAVGPSTAMPGGHGDMHGIIGPSHNGAMGGLGSGYGTGLLSANRHSLMVGTHREDGVALRGSHSLLPNQVPVPQLPVQSATSPDLNPPQDPYRGMPPGLQGQSVSSGSSEIKSDDEGDENLQDTKSSEDKKLDDDKKDIKSITSNNDDEDLTPEQKAEREKERRMANNARERLRVRDINEAFKELGRMVQLHLKSDKPQTKLLILHQAVAVILSLEQQVRERNLNPKAACLKRREEEKVSSEPPPLSLAGPHPGMGDASNHMGQM

- luciferase reporter (12 μE5 E-boxes, minimal promoter) in HEK293 cells, coexpressed with ASCL1; reduction against WT TCF4-B¯: 4.8 fold
B2: TCF4-B¯ A587P (natural protein, human, UniProt P15884-3 1-671, looked up)
chain: B4 chain with W565R, A583P

- luciferase reporter (12 μE5 E-boxes, minimal promoter) in HEK293 cells, coexpressed with ASCL1; reduction against WT TCF4-B¯: 1.4 fold
B3: TCF4-B¯ S253R (natural protein, human, UniProt P15884-3 1-671, looked up)
chain: B4 chain with S253R, W565R

Source: paper PMC8648840, “Functional consequences of TCF4 missense substitutions associated with Pitt-Hopkins syndrome, mild intellectual disability, and schizophrenia” (The Journal of Biological Chemistry, 2021)
